Assay results as given in patent US20210015870A1 (PROMAB BIOTECHNOLOGIES, published 2021).

How the values were obtained:
[1] = molecular target: T1, BCMA protein (recombinant human BCMA) (human, UniProt Q02223 1-54); experiment: BLItz biolayer interferometry, anti-mouse IgG biosensor, antibody at 100, 50 and 25 nM
T1 construct: also called BCMA antigen; BCMA recombinant protein
T1 sequence: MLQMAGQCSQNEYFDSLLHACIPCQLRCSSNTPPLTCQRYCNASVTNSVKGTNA
Protocol: The BCMA 4C8A antibody was diluted to 100, 50 and 25 nM and added to the anti-mouse IgG biosensor (ForteBio Corp., Menlo Park, Calif.). After 5 minutes, the biosensor was rinsed free of unbound antibody. Binding was monitored by the BLItz system (ForteBio), and the antibody's dissociation constant was determined with the BLItz software.

[2] = molecular target: T2, CD18 protein fused with human Fc protein, expressed in transfected 293 cells (UniProt P05107 23-700, limits assumed); experiment: immunostaining of transfected 293 cells
T2 construct: Negative control for immunostaining; also called control CD18 protein; CD18-human Fc protein; not shown: human Fc
T2 sequence (P05107 23-700 limits assumed): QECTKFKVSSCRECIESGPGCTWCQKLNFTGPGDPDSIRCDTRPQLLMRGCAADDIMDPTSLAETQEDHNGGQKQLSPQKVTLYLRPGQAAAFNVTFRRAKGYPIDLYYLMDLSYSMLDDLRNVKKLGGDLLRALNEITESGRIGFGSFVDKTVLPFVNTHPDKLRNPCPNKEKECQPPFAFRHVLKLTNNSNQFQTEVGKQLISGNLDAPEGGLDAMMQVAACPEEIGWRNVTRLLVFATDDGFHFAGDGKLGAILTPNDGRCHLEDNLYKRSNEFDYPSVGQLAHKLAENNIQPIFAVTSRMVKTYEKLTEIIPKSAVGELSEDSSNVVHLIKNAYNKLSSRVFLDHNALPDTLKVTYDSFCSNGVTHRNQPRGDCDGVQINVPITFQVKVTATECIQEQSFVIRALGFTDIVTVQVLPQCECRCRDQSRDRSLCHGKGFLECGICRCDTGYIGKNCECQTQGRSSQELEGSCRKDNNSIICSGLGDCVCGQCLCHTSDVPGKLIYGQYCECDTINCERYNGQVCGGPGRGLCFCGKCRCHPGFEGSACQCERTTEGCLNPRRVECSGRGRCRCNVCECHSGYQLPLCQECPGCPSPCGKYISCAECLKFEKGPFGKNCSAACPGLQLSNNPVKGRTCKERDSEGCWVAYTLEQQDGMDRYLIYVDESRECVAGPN
Excerpt: We transfected 293 cells either with BCMA (CD269)-human Fc protein or control CD18 protein fused with human Fc protein and performed immunostaining analysis. […] By IHC, clone 4C8A bound to RPMI8226 cells, myeloma primary tumors and normal human liver, but not to any other normal or other type cancer human tissues, confirming the specificity of BCMA expression. BCMA antibody detected also BCMA in primary multiple myeloma tumors.

[3] = molecular target: T3, BCMA peptide (BCMA extracellular domain protein with a C-terminal deletion of 37 residues) (human); experiment: ELISA, plate coated with BCMA peptide, HRP anti-mouse IgG and TMB, OD450
T3 construct: also called BCMA shorter peptide; shorter peptide from BCMA extracellular domain
T3 peptide: MLQMAGQCSQNEYFDSL
Protocol: We generated mouse monoclonal anti-human BCMA monoclonal antibody 4C8A using hybridoma. Dilutions of the antibody were incubated in ELISA plates coated with BCMA protein, or BCMA peptide (BCMA extracellular domain protein with a C-terminal deletion of 37 residues), or an irrelevant control CD363 protein. Binding of BCMA mAb 4C8A to the coated protein was detected with HRP-conjugated anti-mouse IgG and TMB substrate. […] The binding of BCMA to BCMA protein was in a dose-dependent manner: decreased with […] in contrast to negative controls (FIG. 4).

B1: mouse monoclonal anti-human BCMA antibody clone 4C8A (antibody, mouse IgG1, V domains shown)
VH: VQLQQSGPELVKPGASVKMSCKASGYTFTSYVMHWVKQKPGQGLEWIGYIIPYNDATKYNEKFKGKATLTSDKSSSTAYMELSSLTSEDSAVYYCARYNYDGYFDVWGAGTTVTVSS
VL: DIVMTQSPATLSVTPGDRVSLSCRASQSISDYLHWYQQKSHESPRLLIKYASQSISGIPSRFSGSGSGSDFTLSINSVEPEDVGVYYCQNGHSFPPTFGGGTKLEIK
notes: also called BCMA mAb 4C8A; BCMA 4C8A antibody
- Kd [1]: ~2.8 nM
- binding result [2]: no binding
- binding result [3]: no binding
